The values below come from PMC10824102 (2024).

Experiment [1] concerns the target T1, full-length 6x-His-tagged human G3BP1 (human, UniProt Q13283 1-466). The experiment is described as follows: SPR. (In general: In SPR one partner is held on a chip, and binding of the other changes the refractive index at the surface.)
Experiment [2] concerns the target T1, full-length 6x-His-tagged human G3BP1. The experiment is described as follows: FRET; competition with FAM-labeled USP10 FGDF peptide probe.

T1 sequence (Q13283 whole entry): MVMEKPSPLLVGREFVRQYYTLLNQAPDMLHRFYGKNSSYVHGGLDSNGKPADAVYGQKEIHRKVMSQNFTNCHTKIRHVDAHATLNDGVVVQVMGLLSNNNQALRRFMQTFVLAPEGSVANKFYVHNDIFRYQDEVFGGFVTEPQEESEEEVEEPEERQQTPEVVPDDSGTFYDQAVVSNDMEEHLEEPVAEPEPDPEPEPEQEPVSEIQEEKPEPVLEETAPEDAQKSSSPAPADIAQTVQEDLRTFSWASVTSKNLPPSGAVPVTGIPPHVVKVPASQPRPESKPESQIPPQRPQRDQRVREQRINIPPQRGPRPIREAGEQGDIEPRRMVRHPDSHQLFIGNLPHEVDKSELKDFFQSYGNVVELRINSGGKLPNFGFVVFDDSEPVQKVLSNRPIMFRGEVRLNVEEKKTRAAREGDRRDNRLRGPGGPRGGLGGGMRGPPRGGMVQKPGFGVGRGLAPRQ

B1: nsP3 25-mer peptide (peptide)
chain: LTFGDFDEHEVDALASGITFGDFDD
Regarding B1, the affinity in experiment [1], expressed as Kd, was 200 nM. In experiment [2], this molecule yielded an IC50 of 3100 nM.

The term Kd denotes the concentration at which binding is half-saturated. The term IC50 denotes the midpoint of a concentration-inhibition curve.
